T1: human TL1A (Fitzgerald, Prod. #30R-AT070) (human, UniProt O95150 72-251, limits assumed, biotinylated with EZ-Link Sulfo-NHS-LC-Biotin where used as soluble antigen)
T1 construct: also called TNFSF15; biotinylated human TL1A
T1 sequence (looked up): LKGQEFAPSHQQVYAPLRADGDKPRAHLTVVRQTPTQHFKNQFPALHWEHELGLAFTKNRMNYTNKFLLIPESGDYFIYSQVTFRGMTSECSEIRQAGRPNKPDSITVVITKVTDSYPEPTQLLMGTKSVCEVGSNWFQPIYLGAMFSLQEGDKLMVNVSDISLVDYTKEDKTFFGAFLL

T2: Fas/TNFSF6 (R&D Systems, cat. no. 126-FL/CF) (UniProt P48023 134-281)
T2 sequence (looked up): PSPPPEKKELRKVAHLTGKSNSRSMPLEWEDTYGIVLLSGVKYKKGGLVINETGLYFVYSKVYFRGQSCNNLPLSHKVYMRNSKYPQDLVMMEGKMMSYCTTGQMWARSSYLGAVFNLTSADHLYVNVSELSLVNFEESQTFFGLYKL

T3: membrane-associated human TL1A on transfected HEK293 cells (human, UniProt O95150 1-251)
T3 construct: whole, on cells
T3 sequence (looked up): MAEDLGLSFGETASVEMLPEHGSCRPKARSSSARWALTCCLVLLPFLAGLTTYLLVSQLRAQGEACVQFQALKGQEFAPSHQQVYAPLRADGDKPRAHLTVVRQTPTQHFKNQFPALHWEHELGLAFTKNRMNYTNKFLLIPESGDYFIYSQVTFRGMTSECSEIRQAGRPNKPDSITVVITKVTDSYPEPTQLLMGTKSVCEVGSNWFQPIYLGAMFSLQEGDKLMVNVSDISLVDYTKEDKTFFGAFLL


Experiments:
[1] = molecular target: T1, human TL1A (Fitzgerald, Prod. …); assay: two ELISA formats: Fab on coated TL1A; captured Fab with biotinylated TL1A
Procedure: Fabs with the CDRs shown in Tables 19 to 22 were tested for binding to human TL1A in multiple formats. Next, uniform (saturating) quantities of soluble Fab variants were captured on the surface of an ELISA plate and soluble, biotinylated human TL1A was titrated as shown in FIGS. 10 to 13.

[2] = molecular target: LIGHT/TNFSF14 (R&D Systems, cat. no. 664-LI/CF) (UniProt O43557 74-240); assay: ELISA, antigen coated at 1 µg/ml, Fab titrated
LIGHT/TNFSF14 (R&D Systems, cat. no. 664-LI/CF), sequence (O43557 74-240 limits assumed): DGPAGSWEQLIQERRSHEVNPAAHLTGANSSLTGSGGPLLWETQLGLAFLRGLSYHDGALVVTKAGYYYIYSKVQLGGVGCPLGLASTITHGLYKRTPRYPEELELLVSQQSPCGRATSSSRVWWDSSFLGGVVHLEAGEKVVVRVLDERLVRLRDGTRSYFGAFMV
Procedure: (§1) Next, all the Fab variants were characterized for their selectivity for human TL1A relative to other TNFSF members TRAIL, LIGHT and Fas. […] The plate was washed 3 times with PBS-T and blocked with 100 μl of 1% BSA/PBS. The block was discarded and the Fab variants or control antibodies (Fas/TNFSF6, R&D Systems, cat. no. AF126; TRAIL/TNFSF10, R&D Systems, cat. no. AF375; LIGHT/TNFSF14, R&D Systems, cat. no. AF664) were titrated in 50 μl 1% BSA/PBS and incubated for 1 h at 25° C. The plate was washed 3 times with PBS-T and secondary HRP-conjugated antibody (diluted 5,000-fold in 1% BSA/PBS) was added for 1 h at 25° C. The plate was washed 3 times with PBS-T and developed.

[3] = molecular target: T2, Fas/TNFSF6 (R&D Systems, cat. no. …); assay: ELISA, antigen coated at 1 µg/ml, Fab titrated
Procedure: as §1

[4] = molecular target: TRAIL/TNFSF10 (R&D Systems, cat. no. 375-TL/CF) (UniProt P50591 114-281); assay: ELISA, antigen coated at 1 µg/ml, Fab titrated
TRAIL/TNFSF10 (R&D Systems, cat. no. 375-TL/CF), sequence (P50591 114-281 limits assumed): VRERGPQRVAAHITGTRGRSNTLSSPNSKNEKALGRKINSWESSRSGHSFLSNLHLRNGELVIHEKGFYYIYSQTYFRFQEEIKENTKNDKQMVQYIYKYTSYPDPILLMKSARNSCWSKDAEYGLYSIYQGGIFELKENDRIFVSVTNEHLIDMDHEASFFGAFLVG
Procedure: as §1

[5] = molecular target: T3, membrane-associated human TL1A on …; assay: flow cytometry, HEK293 cells transfected with human TL1A
Procedure: All the Fab variants were tested for binding to membrane-associated human TL1A. For these studies a HEK293 cell line that had been transfected with human TL1A was used. The 293 cells expressing membrane bound human TL1A were maintained in DMEM containing L-glutamine, glucose, sodium pyruvate, and phenol red (ThermoFisher cat #11995-065) plus 10% fetal bovine serum, 1X penicillin-streptomycin (Fisher cat #15140122) and 2 μg/ml puromycin (Gibco cat #A11138-03) in a 37° C. incubator with 5% CO2. Three days prior to the assay, a T-75 flask was seeded with 3×10⁶ cells so that the flask was 90-95% confluent on the day of the assay. The media was aspirated and the cell monolayer was gently washed with 5 ml PBS. Adherent cells were removed by repeatedly pipetting 10 ml ice cold 1% BSA/PBS against the monolayer. The cells were counted and 5×10⁵ were aliquoted for each sample to be analyzed. The cells were collected by centrifuging at 300× g at 4° C. for 5 minutes and the wash was discarded. The cells were resuspended in 100 μl Fab or IgG diluted in 1% BSA/PBS and placed on ice for 30 min. Next, the cells were washed with 1 ml 1% BSA/PBS and collected by centrifuging at 300× g at 4° C. for 5 min. The wash was discarded and 100 μl secondary goat F (ab′) 2 anti-human kappa FITC (Southern Biotech cat #2062-02) or goat F (ab′) 2 anti-human IgG PE (Southern Biotech cat #2043-09) conjugate, diluted 1:200 in BSA/PBS was added. Cells were placed on ice for 30 min. Finally, the cells were washed with 1 ml BSA/PBS, collected by centrifuging at 300× g at 4° C. for 5 min. The wash was removed and the cells were resuspended in 500 μl 1% BSA/PBS. One drop of Sytox AADvanced ReadyFlow Reagent (ThermoFisher cat #R37173) was added per sample and the samples were analyzed on the Attune NXT Flow Cytometer (ThermoFisher).

| binding result [1] | binding result [2] | binding result [3] | binding result [4] | binding result [5] | Binder |
| --- | --- | --- | --- | --- | --- |
| binds | no binding | no binding | no binding | binds | Clone 3-17L Fab (Fab, V domains shown, Fab) VH: QVQLVQSGAEVKKPGASVKVSCKASGFDIQDTYMHWVRQAPGQGLEWMGRIDPASGHLKYDPKFQGRVTITRDTSASTVYMELSSLRSEDTAVYYCARSGGLPDMWGQGTTVTVSS VL: EIVLTQSPGTLSLSPGERATLSCRASSSVSYMYWYQQKPGQAPRLLIYATSNLASGIPDRFSGSGSGTDFTLTISRLEPEDFAVYYCQQWQGNPRTFGGGTKLEIK |
| binds | no binding | no binding | no binding | binds | Clone 3-17L V-A Fab (Fab, V domains shown, Fab) VH: QVQLVQSGAEVKKPGASVKVSCKASGFDIQDTYMHWVRQAPGQGLEWMGRIDPASGHLKYDPKFQGRVTITRDTSASTAYMELSSLRSEDTAVYYCARSGGLPDMWGQGTTVTVSS VL: EIVLTQSPGTLSLSPGERATLSCRASSSVSYMYWYQQKPGQAPRLLIYATSNLASGIPDRFSGSGSGTDFTLTISRLEPEDFAVYYCQQWQGNPRTFGGGTKLEIK |
| binds | no binding | no binding | no binding | binds | Clone H2-5 Fab (Fab, V domains shown, Fab; also called Clone 112-5) VH: QVQLVQSGAEVKKPGASVKVSCKASGFDIQDTYMHWVRQAPGQGLEWMGRIDPASGHYKYDPKFQVRATITTDTSASTAYLQLSSLRSEDTAVYYCARSGGLPDFWGQGTTVTVSS VL: EIVLTQSPGTLSLSPGERATLSCRASSSVSYMYWYQQKPGQAPRLLIYATSNLASGIPDRFSGSGSGTDFTLTISRLEPEDFAVYYCQQWSGNPRTFGGGTKLEIK |
| binds | no binding | no binding | no binding | binds | Clone L3-13 Fab (Fab, V domains shown, Fab) VH: QVQLVQSGAEVKKPGASVKVSCKASGFDIQDTYMHWVRQAPGQGLEWMGRIDPASGHTKYDPKFQGRATITTDTSASTAYLQLSSLRSEDTAVYYCARSGGLPDFWGQGTTVTVSS VL: EIVLTQSPGTLSLSPGERATLSCRASSSVSYMYWYQQKPGQAPRLLIYATSNLASGIPDRFSGSGSGTDFTLTISRLEPEDFAVYYCQQWKGNPRTFGGGTKLEIK |
| binds | no binding | no binding | no binding | binds | Clone E1 Fab (Fab, V domains shown, Fab) VH: QVQLVQSGAEVKKPGASVKVSCKASGFDIQDTYMHWVRQAPGQGLEWMGRIEPASGHLKYDPKFQERVTMTRDTSTSTVYMELSSLRSEDTAVYYCARSGGLPDKWGQGTTVTVSS VL: EIVLTQSPGTLSLSPGERATLSCGASSSVSYMYWYQQKPGQAPRLLIYATSNLASGIPDRFSGSGSGTDFTLTISRLEPEDFAVYYCQQWEGNPRTFGGGTKLEIK |
| binds | no binding | no binding | no binding | binds | Clone A1 Fab (Fab, V domains shown, Fab) VH: QVQLVQSGAEVKKPGASVKVSCKASGFDIQDTYMHWVRQAPGQGLEWMGRIDPASGHLKYDPKFQNRVTMTRDTSTSTVYMELSSLRSEDTAVYYCARSGGLPDKWGQGTTVTVSS VL: EIVLTQSPGTLSLSPGERATLSCGASSSVSYMYWYQQKPGQAPRLLIYATSNLASGIPDRFSGSGSGTDFTLTISRLEPEDFAVYYCQQWEGNPRTFGGGTKLEIK |
| binds | no binding | no binding | no binding | binds | Clone 16 Fab (Fab, V domains shown, Fab; also called Clone 16L) VH: QVQLVQSGAEVKKPGASVKVSCKASGFDIQDTYMHWVRQAPGQGLEWMGRIDPASGHVKIDPKFQVRVTMTRDTSTSTVYMELSSLRSEDTAVYYCARSGGLPDMWGQGTTVTVSS VL: EIVLTQSPGTLSLSPGERATLSCRASSSVSYMYWYQQKPGQAPRLLIYATSNLASGIPDRFSGSGSGTDFTLTISRLEPEDFAVYYCQQWQGNPRTFGGGTKLEIK |
| binds | no binding | no binding | no binding | binds | Clone 17L-1 Fab (Fab, V domains shown, Fab) VH: QVQLVQSGAEVKKPGASVKVSCKASGFDIQDTYMHWVRQAPGQGLEWMGRIDPASGHLKYDPKFQRRVTMTRDTSTSTVYMELSSLRSEDTAVYYCARSGGLPDMWGQGTTVTVSS VL: EIVLTQSPGTLSLSPGERATLSCRASSSVSYMYWYQQKPGQAPRLLIYATSNLASGIPDRFSGSGSGTDFTLTISRLEPEDFAVYYCQQWQGNPRTFGGGTKLEIK |
| binds | no binding | no binding | no binding | binds | Clone H2-2 Fab (Fab, V domains shown, Fab; also called Clone 112-2) VH: QVQLVQSGAEVKKPGASVKVSCKASGFDIQDTYMHWVRQAPGQGLEWMGRIDPASGHSKYDPKFQVRATITTDTSASTAYLQLSSLRSEDTAVYYCARSGGLPDFWGQGTTVTVSS VL: EIVLTQSPGTLSLSPGERATLSCRASSSVSYMYWYQQKPGQAPRLLIYATSNLASGIPDRFSGSGSGTDFTLTISRLEPEDFAVYYCQQWSGNPRTFGGGTKLEIK |
| binds | no binding | no binding | no binding | binds | Clone H3-1 Fab (Fab, V domains shown, Fab) VH: QVQLVQSGAEVKKPGASVKVSCKASGFDIQDTYMHWVRQAPGQGLEWMGRIDPASGHTKYDPKFQGRATITTDTSASTAYLQLSSLRSEDTAVYYCARSGGLPDLWGQGTTVTVSS VL: EIVLTQSPGTLSLSPGERATLSCRASSSVSYMYWYQQKPGQAPRLLIYATSNLASGIPDRFSGSGSGTDFTLTISRLEPEDFAVYYCQQWSGNPRTFGGGTKLEIK |
